# Results taken from PMC3591335.
# Like-named read-outs stand apart in the source and are kept apart here.
# Key:
# [1] = biological target: Cholera toxin B subunit expressed in E. coli (eCTB) (Vibrio cholerae) (UniProt P01556); test: non-heat-denaturing SDS-PAGE
# [2] = biological target: Cholera toxin B subunit expressed in E. coli (eCTB) (Vibrio cholerae) (UniProt P01556); test: non-heat-denaturing SDS-PAGE; remark: listed apart in the source
substance,measurement,setting,value
Cholera toxin B subunit expressed in E. coli (eCTB) (from UniProt P01556 22-124) (natural protein),stoichiometry N,[1],10
same,stoichiometry N,[2],5
